Measured values taken from publication PMC11782487, “Cryo-EM structures reveal the H^+/citrate symport mechanism of Drosophila INDY” (Life Science Alliance, 2025).

Biological target: the molecule itself
Experiment: cryo-EM structure; purified INDY in MSP1 nanodiscs (E. coli polar lipids); apo at pH 6 and pH 8, with 5 mM citrate, or with 150 uM DIDS; homodimer in all seven structures

B1: Drosophila I'm Not Dead Yet (INDY) (natural protein)
chain: not shown
notes: I'm Not Dead Yet (INDY), Drosophila melanogaster, full-length gene, GenBank AF509505.1; 590 amino acids; Eluted from the anti-GFP resin by overnight thrombin cleavage; residues of the thrombin site may be left at the C-terminus; Regions of poor density were modelled as polyalanine in the deposited structures; also called WT INDY; apo INDY; not shown: eGFP, C-terminal, cleaved; His10, C-terminal, …
stoichiometry N: 2
